Key:
[1] = target: FcRn (UniProt P55899 24-297; P61769 21-119, limits assumed); test: SPR (Biacore) at pH 6.0, antibody immobilized, FcRn injected, steady state fit
Experimental: Antibody binding affinity to FcRn was detected using Biacore T200 (or Biacore 8K). Each antibody was immobilized on CMS sensor chip (GE). FcRn at different concentrations in running buffer (50 mM Na2HPO4/NaH2PO4, 150 mM NaCl, 0.05% Tween20, pH 6.0) were injected over the sensor chip at a flow rate of 30 uL/min for an association phase of 60 s, followed by 60 s dissociation. The chip was then regenerated by 1×PBS (pH 7.4) after each binding cycle.
The binding of W3438-T3U4.E17-1.uIgG4.SP to FcRn was tested by SPR at pH 6.0.

[2] = target: T1, Cynomolgus CD3 epsilon protein (cynomolgus monkey, UniProt Q95LI5 22-117); test: ELISA on coated cynomolgus CD3 epsilon protein
T1 construct: extracellular domain; The method names a bought protein (Acro # CDE-05226), the result names W331-cynoProl.ECD.His; also called W331-cynoProl.ECD.His; Acro # CDE-05226; not shown: His tag by the construct's name
T1 sequence (looked up): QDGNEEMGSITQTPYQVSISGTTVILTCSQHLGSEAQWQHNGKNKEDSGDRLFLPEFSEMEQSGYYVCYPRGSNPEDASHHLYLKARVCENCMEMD
Experimental: The binding of the CD3×CD19 bispecific antibody to cynomolgus CD3 were tested by protein binding ELISA. 96-well high protein binding ELISA plates (Nunc MaxiSorp, ThermoFisher, Thermo-442404) were coated overnight at 4° C. with 100 ul of 1 μg/ml Cynomolgus CD3 epsilon protein (Acro, # CDE-05226) in Carbonate-bicarbonate buffer (20 mM Na2CO3, 180 mM NaHCO₃, PH9.2). All wells were washed one time with 300 μL per well of PBS/0.5% Tween-20 (v/v). The wells were then blocked for one hour at room temperature with 200 μL per well of PBS/2% BSA (BOVOGEN, # BSAS) and washed three times with 300 μL per well of PBS/0.5% Tween-20 (v/v). For the primary antibody binding, CD3×CD19 bispecific antibody serially diluted in PBS/2% BSA were added to the relevant wells and incubated at room temperature for two hours. Plates were washed three times like before prior to the addition of 100 ul of 100 ng/ml secondary antibody Goat-anti-human IgG Fc-HRP (Bethyl, # A80-304P). Plates were incubated at room temperature for one hour, followed by six washes as described above. […] The extent of bispecific antibody binding to cynomolgus CD3 was determined by measuring the OD450 absorbance using the SpectraMax® M5e microplate reader. […]

[3] = target: T2, FcγRIIa (R167) (UniProt P12318 36-218, limits assumed); test: SPR (Biacore), receptor captured on anti-his chip, antibody injected, steady state fit
T2 sequence (looked up): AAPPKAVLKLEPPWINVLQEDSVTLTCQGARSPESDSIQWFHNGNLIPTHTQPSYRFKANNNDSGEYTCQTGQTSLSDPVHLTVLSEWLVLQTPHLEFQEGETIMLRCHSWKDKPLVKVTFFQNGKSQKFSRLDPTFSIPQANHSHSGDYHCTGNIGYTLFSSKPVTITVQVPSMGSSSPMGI
Experimental: (§1) Antibody binding affinity to FcγRs was detected using Biacore T200 (or Biacore 8K). Each receptor was captured on an anti-his antibody immobilized CMS sensor chip (GE). Antibodies at different concentrations were injected over the sensor chip at a flow rate of 30 uL/min for an association phase of 60 s, followed by 60 s dissociation. The chip was then regenerated by 10 mM glycine (pH 1.5) after each binding cycle.
(§2) The sensorgrams of blank surface and buffer channel were subtracted from the test sensorgrams. The experimental data was fitted by 1:1 model using Langmiur analysis (for FcγRI) or steady state model (for other receptors). A molecular weight of 150 KDa was used to calculate the molar concentration of antibodies.

[4] = target: T3, FcγRIIa (H167) (UniProt P12318 36-218, limits assumed); test: as above
T3 sequence (looked up): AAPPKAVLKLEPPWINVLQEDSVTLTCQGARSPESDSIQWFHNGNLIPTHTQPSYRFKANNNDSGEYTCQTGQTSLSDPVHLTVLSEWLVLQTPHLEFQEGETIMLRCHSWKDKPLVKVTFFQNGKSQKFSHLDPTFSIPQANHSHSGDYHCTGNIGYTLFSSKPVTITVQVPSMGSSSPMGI
Experimental: as §1, §2

[5] = target: FcγRIIIa (V176) (UniProt P08637 17-208); test: as above
Chain of FcγRIIIa (V176) (P08637 17-208 F176V limits assumed): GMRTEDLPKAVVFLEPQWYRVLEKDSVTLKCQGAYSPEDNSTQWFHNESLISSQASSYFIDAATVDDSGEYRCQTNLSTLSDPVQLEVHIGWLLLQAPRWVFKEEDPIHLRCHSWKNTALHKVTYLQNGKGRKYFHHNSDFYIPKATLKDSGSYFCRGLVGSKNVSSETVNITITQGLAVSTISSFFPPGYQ
Experimental: as §1, §2

[6] = target: FcγRIIIb (UniProt O75015 17-200); test: as above
Chain of FcγRIIIb (O75015 17-200 limits assumed): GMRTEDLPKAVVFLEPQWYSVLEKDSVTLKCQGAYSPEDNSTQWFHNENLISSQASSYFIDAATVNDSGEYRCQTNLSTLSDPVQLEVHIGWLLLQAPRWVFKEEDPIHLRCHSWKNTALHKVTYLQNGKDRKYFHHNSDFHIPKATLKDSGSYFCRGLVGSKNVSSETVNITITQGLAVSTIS
Experimental: as §1, §2

[7] = target: FcγRIIIa (F176) (UniProt P08637 17-208); test: as above
Chain of FcγRIIIa (F176) (P08637 17-208 limits assumed): as the sequence (P08637 17-208 F176V limits assumed) above, with V160F counted along it
Experimental: as §1, §2

[8] = target: T4, FcγRIIb (UniProt P31994 46-217, limits assumed); test: as above
T4 sequence (looked up): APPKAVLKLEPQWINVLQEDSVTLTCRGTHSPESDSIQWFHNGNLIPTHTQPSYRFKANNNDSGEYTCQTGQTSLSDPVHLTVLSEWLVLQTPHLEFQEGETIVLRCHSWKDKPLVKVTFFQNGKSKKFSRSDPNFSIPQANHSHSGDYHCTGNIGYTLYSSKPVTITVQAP
Experimental: as §1, §2

- Kd [1]: 2580 nM
- EC50 [2]: 0.04 nM
- Kd [3]: 15.8 µM
- Kd [4]: 20.5 µM
- Kd [5]: 14 µM
- Kd [6]: > 41 µM
- Kd [7]: 29.3 µM
- Kd [8]: 24.1 µM
B1: W3438-T3U4.E17-1.uIgG4.SP (bispecific antibody)
light 1: DIVMTQSPDSLAVSLGERATINCKSSQSLLNSRTRKNYLAWYQQKPGQPPKLLIYWASTRQSGVPDRFSGSGSGTDFTLTISSLQAEDVAVYYCTQSHTLRTFGGGTKVEIKPDIQNPDPAVYQLRDSKSSDKSVCLFTDFDSQTQVSQSKDSDVYITDKCVLDMRSMDFKSNSAVAWSQKSDFACANAFQNSIIPEDTFFPSPESS
heavy 1: QVQLVQSGAEVKKPGSSVKVSCKASGFAFTDYYIHWVRQAPGQGLEWMGWISPGNVNTKYNENFKGRVTITADKSTSTAYMELSSLRSEDTAVYYCARDGYSLYYFDYWGQGTLVTVLEDLKNVFPPEVAVFEPSEAEISHTQKATLVCLATGFYPDHVELSWWVNGKEVHSGVCTDPQPLKEQPALQDSRYALSSRLRVSATFWQNPRNHFRCQVQFYGLSENDEWTQDRAKPVTQIVSAEAWGRYGPPCPPCPAPEFLGGPSVFLFPPKPKDTLMISRTPEVTCVVVDVSQEDPEVQFNWYVDGVEVHNAKTKPREEQFNSTYRVVSVLTVLHQDWLNGKEYKCKVSNKGLPSSIEKTISKAKGQPREPQVYTLPPCQEEMTKNQVSLWCLVKGFYPSDIAVEWESNGQPENNYKTTPPVLDSDGSFFLYSRLTVDKSRWQEGNVFSCSVMHEALHNHYTQKSLSLSLGK
light 2: DIQLTQSPSFLSASVGDRVTITCSASSTVNYMHWYQQKPGKAPKLLIYSTSNLASGVPSRFSGSGSGTEFTLTISSLQPEDFATYYCHQWSSYPYTFGQGTKLEIKRTVAAPSVFIFPPSDEQLKSGTASVVCLLNNFYPREAKVQWKVDNALQSGNSQESVTEQDSKDSTYSLSSTLTLSKADYEKHKVYACEVTHQGLSSPVTKSFNRGEC
heavy 2: QMQLVQSGPEVKKPGTSVKVSCKASGYAFTSYNMYWVRQARGQRLEWIGYIDPYNGDTTYNQKFKGRVTITRDMSTSTAYMELSSLRSEDTAVYYCLTTAYAMDYWGQGTLVTVSSASTKGPSVFPLAPCSRSTSESTAALGCLVKDYFPEPVTVSWNSGALTSGVHTFPAVLQSSGLYSLSSVVTVPSSSLGTKTYTCNVDHKPSNTKVDKRVESKYGPPCPPCPAPEFLGGPSVFLFPPKPKDTLMISRTPEVTCVVVDVSQEDPEVQFNWYVDGVEVHNAKTKPREEQFNSTYRVVSVLTVLHQDWLNGKEYKCKVSNKGLPSSIEKTISKAKGQPREPQVCTLPPSQEEMTKNQVSLSCAVKGFYPSDIAVEWESNGQPENNYKTTPPVLDSDGSFFLVSRLTVDKSRWQEGNVFSCSVMHEALHNHYTQKSLSLSLGK
notes: Bispecific, bivalent: one anti-CD3 arm with TCR constant domains and one native anti-CD19 Fab arm, IgG4 S228P Fc with knobs-into-holes; also called WBP3438; CD3×CD19 bispecific antibody; copies: 1 + 1 + 1 + 1

From patent publication US20200283523A1 (WUXI BIOLOGICS IRELAND, published 2020)
